# Paper doi:10.1101/2025.09.05.674548
# Biological target: T.ni-cell expression optimized human P2X4 construct (P2X4^T.ni) (human) (UniProt Q99571)
substance,measurement,value
T.ni-cell expression optimized human P2X4 construct (P2X4^T.ni) (from UniProt Q99571-1 1-388) (receptor),stoichiometry N,3
